The results in this text go back to the supplement of paper PMC9112550, “Optimization of the antimicrobial peptide Bac7 by deep mutational scanning” (BMC Biology, 2022).
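Also: peptides expressed intracellularly from a pBAD plasmid library in pooled LB shake-flask culture, induced with 0.3% L-arabinose, DNA abundance read by NGS, three biological replicates, DESeq2 with apeglm shrinkage.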

The subject of this data set is Escherichia coli TOP10. Briefly: shrunken log2 fold change of peptide-encoding DNA abundance (4.5 h post-induction vs induction); higher = less antimicrobial activity (less host growth inhibition). Conditions: time post-induction: 4.5 h; library: site-saturation at positions 5, 18, 19, 20.
In the case of RRIRSRPPRLPRPRPRPDFEPRP, the “shrunken log2 fold change” value was -0.0501.
For RRIRERPPRLPRPRPRPFPLPRP the value was -0.134.
For RRIRKRPPRLPRPRPRPLNSPRP the value was 0.00355.
For RRIRTRPPRLPRPRPRPNNHPRP, the “shrunken log2 fold change” value was -0.345.
Take RRIRCRPPRLPRPRPRPMTWPRP: the “shrunken log2 fold change” value was -0.383.
Consider RRIRERPPRLPRPRPRPEDMPRP, for which the “shrunken log2 fold change” value is -0.0115.
Consider RRIRKRPPRLPRPRPRPVQWPRP, for which the “shrunken log2 fold change” value is 0.743.
Turning to RRIRTRPPRLPRPRPRPESWPRP, the “shrunken log2 fold change” value was 0.809.
For RRIRLRPPRLPRPRPRPMRNPRP the value was 0.372.
For RRIRVRPPRLPRPRPRPDLMPRP the value was -0.00839; for RRIRFRPPRLPRPRPRPGWNPRP, 0.0411.
With RRIRLRPPRLPRPRPRPSRGPRP, the “shrunken log2 fold change” value amounted to 0.0578.
For RRIRMRPPRLPRPRPRPCHYPRP, the “shrunken log2 fold change” value is -0.112.
For RRIRNRPPRLPRPRPRPGFCPRP the value was 0.164; for RRIRLRPPRLPRPRPRPNKWPRP, -0.066; for RRIRKRPPRLPRPRPRPTGIPRP, 0.0402.
To RRIRPRPPRLPRPRPRPESKPRP belongs 0.224.
To RRIRPRPPRLPRPRPRPTSFPRP belongs 0.0509; to RRIRLRPPRLPRPRPRPIPCPRP, -0.00241.
In the case of RRIRRRPPRLPRPRPRPGWVPRP, the “shrunken log2 fold change” value was determined as 0.359.
For RRIRDRPPRLPRPRPRPFKWPRP the value was -0.0034; for RRIRSRPPRLPRPRPRPSYVPRP, -0.735; for RRIRRRPPRLPRPRPRPTNNPRP, -0.0392.
As to RRIRFRPPRLPRPRPRPCLKPRP, the “shrunken log2 fold change” value was -0.148.
For RRIRGRPPRLPRPRPRPTWQPRP the value was 0.731; for RRIRYRPPRLPRPRPRPCNHPRP, -0.213.
For RRIRTRPPRLPRPRPRPSQVPRP the value was -0.2.
To RRIRKRPPRLPRPRPRPYHPPRP belongs 0.0155; to RRIRMRPPRLPRPRPRPHLHPRP, -0.301; to RRIRVRPPRLPRPRPRPQEAPRP, -0.0448.
Regarding RRIRVRPPRLPRPRPRPNYVPRP, the “shrunken log2 fold change” value was -0.254.
To RRIRARPPRLPRPRPRPLIMPRP belongs -0.144; to RRIRQRPPRLPRPRPRPRMCPRP, 0.0318.
For the sequence RRIRIRPPRLPRPRPRPDWHPRP, the “shrunken log2 fold change” value was -0.882.
For RRIRLRPPRLPRPRPRPDTDPRP the value was 0.0475; for RRIRLRPPRLPRPRPRPYPLPRP, -0.413; for RRIRPRPPRLPRPRPRPSWNPRP, -0.158.
To RRIRHRPPRLPRPRPRPPQSPRP belongs 0.193; to RRIRHRPPRLPRPRPRPVQLPRP, -0.0712; to RRIRKRPPRLPRPRPRPIQGPRP, -0.0243.
Take RRIRMRPPRLPRPRPRPMIRPRP: the “shrunken log2 fold change” value is 0.00211.
For RRIRMRPPRLPRPRPRPPFKPRP the value was 0.173; for RRIRDRPPRLPRPRPRPKYFPRP, -0.0236.
For the sequence RRIRKRPPRLPRPRPRPEPMPRP, the “shrunken log2 fold change” value stood at 0.504.
For the sequence RRIRARPPRLPRPRPRPPCRPRP, the “shrunken log2 fold change” value stood at 0.517.
For RRIRDRPPRLPRPRPRPDNCPRP the value was -0.000924.
Regarding RRIRKRPPRLPRPRPRPRVRPRP, the “shrunken log2 fold change” value stood at 0.755.
Consider RRIRRRPPRLPRPRPRPHLSPRP, for which the “shrunken log2 fold change” value is 0.112.
For RRIRLRPPRLPRPRPRPQLSPRP the value was -0.0956.
To RRIRCRPPRLPRPRPRPDHAPRP belongs -0.0323; to RRIRNRPPRLPRPRPRPNTPPRP, -0.543.
To RRIRHRPPRLPRPRPRPKLAPRP belongs -0.0576; to RRIRLRPPRLPRPRPRPHLHPRP, -0.424.
On to RRIRARPPRLPRPRPRPGMWPRP, for which the “shrunken log2 fold change” value came out at 0.485.
Consider RRIRSRPPRLPRPRPRPEMWPRP, for which the “shrunken log2 fold change” value was 0.67.
Turning to RRIRMRPPRLPRPRPRPCAQPRP, the “shrunken log2 fold change” value is -0.0823.
For RRIRHRPPRLPRPRPRPEVYPRP the value was -0.0062; for RRIRDRPPRLPRPRPRPFAVPRP, -0.0136.
Turning to RRIRNRPPRLPRPRPRPLCPPRP, the “shrunken log2 fold change” value was -0.141.
As to RRIRQRPPRLPRPRPRPFADPRP, the “shrunken log2 fold change” value is -0.0142.
For RRIRKRPPRLPRPRPRPYFDPRP the value was -0.383; for RRIRIRPPRLPRPRPRPSAMPRP, -0.349.
